Experimental data: patent US20220073581A1 (UCB, published 2022)

T1: IL-2-Rβ (IL-2 receptor β chain, R&D Systems) (UniProt P14784 27-239)
T1 construct: also called IL-2-sRβ
T1 sequence (looked up): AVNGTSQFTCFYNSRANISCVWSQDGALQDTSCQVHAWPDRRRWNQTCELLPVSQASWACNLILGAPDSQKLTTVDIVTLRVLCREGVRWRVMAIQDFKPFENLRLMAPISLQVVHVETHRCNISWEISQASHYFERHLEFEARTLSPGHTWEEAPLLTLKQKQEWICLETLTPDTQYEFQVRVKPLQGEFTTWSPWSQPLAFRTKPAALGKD

T2: GM-CSF receptor, cognate for the human GM-CSF constructs (GM-CSF-Ra, R&D Systems) (UniProt P15509 23-320)
T2 construct: also called cognate GM-CSF receptor
T2 sequence (looked up): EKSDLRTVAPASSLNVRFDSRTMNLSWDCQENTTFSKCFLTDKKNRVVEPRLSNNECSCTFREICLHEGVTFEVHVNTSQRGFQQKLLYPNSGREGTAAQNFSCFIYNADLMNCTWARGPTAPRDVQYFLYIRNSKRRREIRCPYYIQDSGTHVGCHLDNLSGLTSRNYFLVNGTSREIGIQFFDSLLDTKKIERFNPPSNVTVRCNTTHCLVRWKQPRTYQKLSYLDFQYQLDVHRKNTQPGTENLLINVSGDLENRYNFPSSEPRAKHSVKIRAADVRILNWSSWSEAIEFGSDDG


What was measured:
human recombinant IL-17A = human recombinant IL-17A (human, UniProt Q16552 24-155, limits assumed); assay: cell-based or functional assay
[1] = target: T1, IL-2-Rβ (IL-2 receptor β chain, R&D …); assay: SPR (Biacore), fusion captured on anti-human F(ab)2, 100 nM IL-2-Rβ injected
[2] = target: T2, GM-CSF receptor, cognate for the human …; assay: SPR (Biacore), fusion captured on anti-human F(ab)2, 100 nM GM-CSF receptor injected
Description: (§1) Briefly, the carboxymethyl dextran surface was activated with a fresh 1:1 (v/v) mixture of 50 mM N-hydroxysuccimide and 200 mM 1-ethyl-3-(3-dimethylaminopropyl)-carbodiimide for 5 minutes at a flow rate of 10 μL/min. The anti-human F(ab)₂ in 10 mM acetate pH 5.0 buffer was covalently coupled to chips at 50 μg/mL in a 10 minute pulse at the same flow rate. Finally the surface was deactivated with a 10 minute pulse of 1 M ethanolamine.HCl pH 8.5. A reference flow cell was prepared on the chip by omitting the protein from the above procedure.
A typical SPR cycle comprised a flow rate of 10 μL/min with HBS-EP as running buffer and diluted supernatant was injected for 1 min to capture the antibody/Fab fusion protein. This was followed by a 30 μl injection of the diluted cognate ligand or receptor or buffer control. The subsequent dissociation phase was monitored for at least 3 min. […] In some experiments a specificity control cycle was included where the cognate receptor/ligand (the insert portion of the antibody/Fab fusion protein) was pre-mixed with a 2-fold molar excess of its binding partner. Each cycle terminated with a regeneration step comprising two 10 μL injections of 40 mM HCl interspersed with a 5 μL injection of 5 mM NaOH. […]

Lysozyme (R&D Systems) = Lysozyme (R&D Systems) (UniProt P00698 19-147); assay: SPR, Fab construct captured via anti-human F(ab)2, lysozyme 0.1-10 nM, Langmuir model
Description: as §1
A typical SPR cycle comprised a flow rate of 10 μL/min with HBS-EP as running buffer and diluted supernatant was injected for 1 min to capture the antibody/Fab fusion protein. This was followed by a 30 μl injection of the diluted cognate ligand or receptor or buffer control. The subsequent dissociation phase was monitored for at least 3 min. […] In some experiments a specificity control cycle was included where the cognate receptor/ligand (the insert portion of the antibody/Fab fusion protein) was pre-mixed with a 2-fold molar excess of its binding partner. Each cycle terminated with a regeneration step comprising two 10 μL injections of 40 mM HCl interspersed with a 5 μL injection of 5 mM NaOH.
Following capture of the Fab construct, 90 μl of the cognate ligand or buffer control was injected followed by a dissociation phase of 180 sec. A ligand binding over a range of concentrations (0.1, 0.2, 0.5, 1, 2, 5, & 10 nM) was tested. Sensorgrams were corrected for drift by subtraction of a zero ligand sensorgram and for non-specific interaction by subtraction of the wild type Fab corrected sensorgram. Affinity constants were calculated from separate dissociation and association rate constants that were fitted to the corrected sensorgrams using the Langmuir model of the BIAevaluation software (version 4.1.1).

| Binder | binding result [1] | Kd (Lysozyme (R&D Systems)) [pM] | also measured |
| --- | --- | --- | --- |
| CA645 Fab-Fwk3 CA497 dsscFv (vLvH) (bispecific antibody) heavy: EVQLLESGGGLVQPGGSLRLSCAVSGIDLSNYAINWVRQAPGKGLEWIGIIWASGTTFYATWAKGRFTISRDNSGGGGSGGGGSAIQLTQSPSSLSASVGDRVTITCKASESVSSSMYSYMHWYQQKPGKAPKLLIYRASNLESGVPSRFSGSGSGTDFTLTISSLQPEDFATYYCQQSWTAPRTFGCGTKVEIKGGGGSGGGGSGGGGSEVQLVESGGGLVKPGGSLRLSCAASGVIFSDYYMAWVRQAPGKCLEWVASINFNADISYYRESVKGRFTISRDDSKNTLYLQMNSLKTEDTAVYYCTTDANRQNYDWFAYWGQGTLVTVSSGGGGSGGGGSKNTVYLQMNSLRAEDTAVYYCARTVPGYSTAPYFDLWGQGTLVTVSSASTKGPSVFPLAPSSKSTSGGTAALGCLVKDYFPEPVTVSWNSGALTSGVHTFPAVLQSSGLYSLSSVVTVPSSSLGTQTYICNVNHKPSNTKVDKKVEPKSC light: DIQMTQSPSSVSASVGDRVTITCQSSPSVWSNFLSWYQQKPGKAPKLLIYEASKLTSGVPSRFSGSGSGTDFTLTISSLQPEDFATYYCGGGYSSISDTTFGGGTKVEIKRTVAAPSVFIFPPSDEQLKSGTASVVCLLNNFYPREAKVQWKVDNALQSGNSQESVTEQDSKDSTYSLSSTLTLSKADYEKHKVYACEVTHQGLSSPVTKSFNRGEC |  |  | IL-17A EC50 (ng/ml), neutralisation of IL-17A (IL-6 secretion by Hela cells), with HSA (human recombinant IL-17A): 10.8 ng/mL; IL-17A EC50 (ng/ml), neutralisation of IL-17A (IL-6 secretion by Hela cells), without HSA (human recombinant IL-17A): 10.5 ng/mL |
| CA645/IL-15Fwk3 with 2xG4S linker (Fab, also called CA645 Fab heavy chain with human IL-15 inserted into framework 3 with 2xG4S linker) heavy: not shown light: DIQMTQSPSSVSASVGDRVTITCQSSPSVWSNFLSWYQQKPGKAPKLLIYEASKLTSGVPSRFSGSGSGTDFTLTISSLQPEDFATYYCGGGYSSISDTTFGGGTKVEIKRTVAAPSVFIFPPSDEQLKSGTASVVCLLNNFYPREAKVQWKVDNALQSGNSQESVTEQDSKDSTYSLSSTLTLSKADYEKHKVYACEVTHQGLSSPVTKSFNRGEC | binds |  |  |
| CA645/GM-CSFFwk3 (human) (CA645 Fab with human GM-CSF inserted into framework 3 of the VH domain) (Fab, also called CA645/hGM-CSF antibody fusion protein) heavy: not shown light: DIQMTQSPSSVSASVGDRVTITCQSSPSVWSNFLSWYQQKPGKAPKLLIYEASKLTSGVPSRFSGSGSGTDFTLTISSLQPEDFATYYCGGGYSSISDTTFGGGTKVEIKRTVAAPSVFIFPPSDEQLKSGTASVVCLLNNFYPREAKVQWKVDNALQSGNSQESVTEQDSKDSTYSLSSTLTLSKADYEKHKVYACEVTHQGLSSPVTKSFNRGEC |  |  | binding result [2]: binds |
| CA645 Fab-Fwk3 CA497 dsscFv (vHvL) (bispecific antibody) heavy: EVQLLESGGGLVQPGGSLRLSCAVSGIDLSNYAINWVRQAPGKGLEWIGIIWASGTTFYATWAKGRFTISRDNSGGGGSGGGGSEVQLVESGGGLVKPGGSLRLSCAASGVIFSDYYMAWVRQAPGKCLEWVASINFNADISYYRESVKGRFTISRDDSKNTLYLQMNSLKTEDTAVYYCTTDANRQNYDWFAYWGQGTLVTVSSGGGGSGGGGSGGGGSAIQLTQSPSSLSASVGDRVTITCKASESVSSSMYSYMHWYQQKPGKAPKLLIYRASNLESGVPSRFSGSGSGTDFTLTISSLQPEDFATYYCQQSWTAPRTFGCGTKVEIKGGGGSGGGGSKNTVYLQMNSLRAEDTAVYYCARTVPGYSTAPYFDLWGQGTLVTVSSASTKGPSVFPLAPSSKSTSGGTAALGCLVKDYFPEPVTVSWNSGALTSGVHTFPAVLQSSGLYSLSSVVTVPSSSLGTQTYICNVNHKPSNTKVDKKVEPKSC light: DIQMTQSPSSVSASVGDRVTITCQSSPSVWSNFLSWYQQKPGKAPKLLIYEASKLTSGVPSRFSGSGSGTDFTLTISSLQPEDFATYYCGGGYSSISDTTFGGGTKVEIKRTVAAPSVFIFPPSDEQLKSGTASVVCLLNNFYPREAKVQWKVDNALQSGNSQESVTEQDSKDSTYSLSSTLTLSKADYEKHKVYACEVTHQGLSSPVTKSFNRGEC |  |  | IL-17A EC50 (ng/ml), neutralisation of IL-17A (IL-6 secretion by Hela cells), with HSA (human recombinant IL-17A): 8.7 ng/mL; IL-17A EC50 (ng/ml), neutralisation of IL-17A (IL-6 secretion by Hela cells), without HSA (human recombinant IL-17A): 10.6 ng/mL |
| HyHEL5/VHH D3L11Fwk3 (anti-lysozyme HyHEL5 Fab with anti-lysozyme VHH D3L11 inserted into framework 3 of the light chain) (bispecific antibody, also called Antibody: HyHEL5 Fab, Framework 3 Insert: VHH D3L11) heavy: EVQLQQSGAELMKPGASVKISCKASGYTFSDYWIEWVKQRPGHGLEWIGEILPGSGSTNYHERFKGKATFTADTSSSTAYMQLNSLTSEDSGVYYCLHGNYDFDGWGQGTTLTVSSASTKGPSVFPLAPSSKSTSGGTAALGCLVKDYFPEPVTVSWNSGALTSGVHTFPAVLQSSGLYSLSSVVTVPSSSLGTQTYICNVNHKPSNTKVDKKVEPKSC light: DIVLTQSPAIMSASPGEKVTMTCSASSSVNYMYWYQQKSGTSPKRWIYDTSKLASGVPVRFSGSGSGSGGGGSDVQLVESGGGSVQAGGSLRLSCAASGSTDSIEYMTWFRQAPGKAREGVAALYTHTGNTYYTDSVKGRFTISQDKAKNMAYLRMDSVKSEDTAIYTCGATRKYVPVRFALDQSSYDYWGQGTQVTVSSGGGGSGGGGSGGGGSTSYSLTISSMETEDAATYYCQQWGRNPTFGGGTKLEIKRTVAAPSVFIFPPSDEQLKSGTASVVCLLNNFYPREAKVQWKVDNALQSGNSQESVTEQDSKDSTYSLSSTLTLSKADYEKHKVYACEVTHQGLSSPVTKSFNRGEC |  | 26 |  |
| HyHEL5/VHH15Fwk3 (anti-lysozyme HyHEL5 Fab with anti-IL-6 VHH15 inserted into framework 3 of the light chain) (bispecific antibody, also called Antibody: HyHEL5 Fab, Framework 3 Insert: VHH15) heavy: EVQLQQSGAELMKPGASVKISCKASGYTFSDYWIEWVKQRPGHGLEWIGEILPGSGSTNYHERFKGKATFTADTSSSTAYMQLNSLTSEDSGVYYCLHGNYDFDGWGQGTTLTVSSASTKGPSVFPLAPSSKSTSGGTAALGCLVKDYFPEPVTVSWNSGALTSGVHTFPAVLQSSGLYSLSSVVTVPSSSLGTQTYICNVNHKPSNTKVDKKVEPKSC light: DIVLTQSPAIMSASPGEKVTMTCSASSSVNYMYWYQQKSGTSPKRWIYDTSKLASGVPVRFSGSGSGSGGGGSQVQLVESGGGSVQAGGSLRLSCVAASGYTGCTYDMRWYRQAPGKEREFVSGIDSDGRATYADSVKGRFTISQSNAKIAVYLQMDSLKLEDTAMYYCNLQCLRYPGEYYWGQGTQVTVSSGGGGSGGGGSGGGGSTSYSLTISSMETEDAATYYCQQWGRNPTFGGGTKLEIKRTVAAPSVFIFPPSDEQLKSGTASVVCLLNNFYPREAKVQWKVDNALQSGNSQESVTEQDSKDSTYSLSSTLTLSKADYEKHKVYACEVTHQGLSSPVTKSFNRGEC |  | 310 |  |
| CA645/GM-CSFCH1 (human) (CA645 Fab with human GM-CSF at the C-terminus of CH1, for comparison) (Fab, V domains shown, also called constant domain (CH1) fusion of the GM-CSF peptide (human)) VH: EVQLLESGGGLVQPGGSLRLSCAVSGIDLSNYAINWVRQAPGKGLEWIGIIWASGTTFYATWAKGRFTISRDNSKNTVYLQMNSLRAEDTAVYYCARTVPGYSTAPYFDLWGQGTLVTVSS VL: DIQMTQSPSSVSASVGDRVTITCQSSPSVWSNFLSWYQQKPGKAPKLLIYEASKLTSGVPSRFSGSGSGTDFTLTISSLQPEDFATYYCGGGYSSISDTTFGGGTKVEIKR |  |  | binding result [2]: binds |

More lines, main results first:

| binding result [1] | Kd (Lysozyme (R&D Systems)) [pM] | Binder | also measured |
| --- | --- | --- | --- |
| binds |  | CA645/IL-15Fwk3 with bovine short linker (Fab, also called CA645 Fab heavy chain with human IL-15 inserted into framework 3 with bovine short linker) heavy: not shown light: DIQMTQSPSSVSASVGDRVTITCQSSPSVWSNFLSWYQQKPGKAPKLLIYEASKLTSGVPSRFSGSGSGTDFTLTISSLQPEDFATYYCGGGYSSISDTTFGGGTKVEIKRTVAAPSVFIFPPSDEQLKSGTASVVCLLNNFYPREAKVQWKVDNALQSGNSQESVTEQDSKDSTYSLSSTLTLSKADYEKHKVYACEVTHQGLSSPVTKSFNRGEC |  |
| binds |  | CA645/IL-15Fwk3 with bovine long linker (Fab, also called CA645 Fab heavy chain with human IL-15 inserted into framework 3 with bovine long linker) heavy: not shown light: DIQMTQSPSSVSASVGDRVTITCQSSPSVWSNFLSWYQQKPGKAPKLLIYEASKLTSGVPSRFSGSGSGTDFTLTISSLQPEDFATYYCGGGYSSISDTTFGGGTKVEIKRTVAAPSVFIFPPSDEQLKSGTASVVCLLNNFYPREAKVQWKVDNALQSGNSQESVTEQDSKDSTYSLSSTLTLSKADYEKHKVYACEVTHQGLSSPVTKSFNRGEC |  |
|  | 480 | CA645/VHH D3L11Fwk3 (CA645 Fab with anti-lysozyme VHH D3L11 inserted into framework 3 of the light chain) (bispecific antibody, also called Antibody: CA645 Fab, Framework 3 Insert: VHH D3L11) heavy: EVQLLESGGGLVQPGGSLRLSCAVSGIDLSNYAINWVRQAPGKGLEWIGIIWASGTTFYATWAKGRFTISRDNSKNTVYLQMNSLRAEDTAVYYCARTVPGYSTAPYFDLWGQGTLVTVSSASTKGPSVFPLAPSSKSTSGGTAALGCLVKDYFPEPVTVSWNSGALTSGVHTFPAVLQSSGLYSLSSVVTVPSSSLGTQTYICNVNHKPSNTKVDKKVEPKSC light: DIQMTQSPSSVSASVGDRVTITCQSSPSVWSNFLSWYQQKPGKAPKLLIYEASKLTSGVPSRFSGSGSGSGGGGSDVQLVESGGGSVQAGGSLRLSCAASGSTDSIEYMTWFRQAPGKAREGVAALYTHTGNTYYTDSVKGRFTISQDKAKNMAYLRMDSVKSEDTAIYTCGATRKYVPVRFALDQSSYDYWGQGTQVTVSSGGGGSGGGGSGGGGSTDFTLTISSLQPEDFATYYCGGGYSSISDTTFGGGTKVEIKRTVAAPSVFIFPPSDEQLKSGTASVVCLLNNFYPREAKVQWKVDNALQSGNSQESVTEQDSKDSTYSLSSTLTLSKADYEKHKVYACEVTHQGLSSPVTKSFNRGEC |  |
